Test results reported in paper PMC6861513, “Insight into the dimer dissociation process of the Chromobacterium violaceum (S)-selective amine transaminase” (Scientific Reports, 2019).

Target: the molecule itself
Experiment: crystal structure; PMP·Cv-ATA; holo-Cv-ATA crystals grown by sitting drop in 100 mM HEPES pH 7.5, 350 mM NaCl, 22.5% PEG 4000, 0.1 mM PLP, cryoprotected with 20 mM 1-(S)-phenylethylamine; space group P1; 1.67 Å

B1: Chromobacterium violaceum (S)-selective amine transaminase, wild type (enzyme)
chain: MQKQRTTSQWRELDAAHHLHPFTDTASLNQAGARVMTRGEGVYLWDSEGNKIIDGMAGLWCVNVGYGRKDFAEAARRQMEELPFYNTFFKTTHPAVVELSSLLAEVTPAGFDRVFYTNSGSESVDTMIRMVRRYWDVQGKPEKKTLIGRWNGYHGSTIGGASLGGMKYMHEQGDLPIPGMAHIEQPWWYKHGKDMTPDEFGVVAARWLEEKILEIGADKVAAFVGEPIQGAGGVIVPPATYWPEIERICRKYDVLLVADEVICGFGRTGEWFGHQHFGFQPDLFTAAKGLSSGYLPIGAVFVGKRVAEGLIAGGDFNHGFTYSGHPVCAAVAHANVAALRDEGIVQRVKDDIGPYMQKRWRETFSRFEHVDDVRGVGMVQAFTLVKNKAKRELFPDFGEIGTLCRDIFFRNNLIMRACGDHIVSAPPLVMTRAEVDEMLAVAERCLEEFEQTLKARGLA
notes: omega-transaminase / (S)-selective amine transaminase of Chromobacterium violaceum, GenBank WP_011135573, in pET28a(+); No tag cleavage is described; also called Cv-ATA; Cv-TA; source: E. coli BL21(DE3), purified (HisTrap FF crude, gel filtration on Superdex 200)
binding result: binds
